The record followed here is the NTF2 design screens of Basanta et al. (2020).

A short description of the series: protease stability score; higher = more stable; yeast display proteolysis, trypsin and chymotrypsin.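 Also: relative to predicted unfolded state with 0 unfolded-like and 1 meaning tenfold more protease.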
In turn, “DEEHEIIRKMFEIVKDMFKTGDEEITERLLDPNARIDIDGRDIVGRESVLWLFSQFKNLRHRDDRIDYQGNFVIVRGKLDINGRRVEIEIVAAKVDGRWILHSIKMQ” had a protease stability score of 1.43.

“DEEHEINRRIAEWWLHSVKTGDEESIENNADPNTRIVVNGVHFHGMEESHKWLHEFLRRFKNATLEIHSMEVINGVTHIHGTLVQGDKRIRVHIHVHVINGRIHTISHEHR”: the protease stability score was determined as 1.27.

As to “DEEHEIVELIMRIFLHAVLTGDWELIEKLADPNVRIIIRINGQEIHFHGREHLRHRFEHLRIDRMEIHDYKNVGDWLDIDGRENGNFNGRKHETRVHIHIRVINGKLHELRVTYR”, the protease stability score was found to be 1.68.

“DEEHEKLYQDLEYWVKMVRTGDEDSHLEYADPDVRLDVNGQQFIGREEFTRFFRTLSRELGLDNINFRIKDIRNVGDKIDIDGHREINGRRVRIILVAWKFNGRWYLHEERIR”: the protease stability score came out at 1.39.

Take “DEEHELLEHWLRLFEEAFSTGDWRIMARLIDPNARLEIGEKDHHGREELIKFMLRVDHIDDFRLHEKDRTEIDGRLRMNGNNEVQGTVNGQKRNITIDIHIVVVKVDGRWFVERIRIR”: the protease stability score was 1.3.

Take “DEEHELTRKVLTEMWEIFMTGDWKRWHELLDPHVRFVYVQGEFEDVHHGREEVKRLFDKLLKDLGFKHSELTDTRLVGNKAVIDGTIHVGDKIYDFHLNVLVVNGKVKTIEVEIREK”: the protease stability score was 1.94.

Sequence “DEEHEMAKRASEKFVKDWVTGNFEVLRENLDPHVRLDINGVKVHGRELVWHYIAKRLRFMGVDHTEMEVHHREVQGNKLITDMEERIHVGDYHEERRVVLISQKINGKWLVKSIHEE” displayed a protease stability score of 1.56.

Sequence “DEEHEMIQTHLRLFHEALLTGDEEELHRLLDPNVRVDIGDKHLHGREVVIHWMRQIRVKHLDLDLDHERSVNGRVDIKGTLRSDVIINGQRHKTSHTLHFHATKINGRWFIKEYIVD” came in with a protease stability score of 2.06.

“DEEHEQLERLARDYMHSTETGDEESIRRFFDPHTRYDIDGKESHGWEMIKHWMEEWRIDSVTIHSIHRINGVAHIDVTVHGEIGDKQTTFRVIIDLVIVNGKVHEIRIIFE” displayed a protease stability score of -0.086.

On to “DEEHEVLRRMVERIREMEKTGDWERYATMADPNTRVDVNGVELHGMENVAFWFWLHLYRHGIEIKDIRVRDIKVQGEKYQEDGELYGHINGQTTILEVHLEITFVNGRIHSEKISIK”, for which the protease stability score was found to be 1.25.

The sequence “DEEHEWAQLVIQLFFEALHTGDEKTLHELMDPEVKVNVDGRELHGREEVMEWFEELIRQYKNAKIHLHIHRVEYVGNKVIIRGELHFRYGDKEERIDRILHVLKVDGRWLIREIEHR” came in with a protease stability score of 1.51.

On to “DEEHEWAQRIIEYLSKNEKTGDEDSARELADPNMRFEIDGVEIVGMETWVRRFLELRVEDLTMDVEHIHVQGNFVHIQTRLELHGHINGRRTRYTTTMRLFVLKINGKWIITHVKYE”, for which the protease stability score was 1.45.

Take “DEEHEWMHIMMELLLRAFETGDPDLFEHLADPNTRLQIGDKTIHGRTKVSTWLHREIRRADHLEIRLREYDYQGDKLEMKTELIIQQGDKQVQLETRVIIIKINGRWFLESIEIN”: the protease stability score was found to be 1.23.

“DEEHHDARRIIEEFITLLKTGDEENLDEYLDPNVRIEFNGRDLHGMEWFLHFLREIRFRDDDHKRIQVKVINGQVHILIKMHVDGVWDGRRKISDVHLHFTVVKVDGRWRFTSIHVHIE”: the protease stability score came to 1.35.

“DEEHHDLQEFFERLKRHWETGDWKEITKNFDPNVKERYGDFEVHGREEAIRKAKEMRYNDMDIRHRRVIDGRAYLHTEMDGNFDGRERRFEVEMIITKIDGVWRIKHVTFK” showed a protease stability score of 1.06.

Consider “DEEHHELHKMFEEMINKWITGDWEYIVKLLDPHVKLEVGDKRHHGWKQYVLFLEEFMREFKNATIKIHDVTHVDGVVIINMKFHFNGKDIDTTLYLHIVNGRLHDERIEVE”, for which the protease stability score turned out to be 1.74.

Sequence “DEEHHLAKELVRLLQEALSTGDEDEVKRLIDPDYRLIIGEFIFHGREDLERWLHHARVSVKDSHLRHVKVQGDKVEINGERNLIVIIDGKKIERKHRLHLIIIKVDGRWFMESEKYD” yielded a protease stability score of 1.01.

“DEEHHNAREMLKLFLDFMQTGDWESHLEMADPNVKVIIDGQEFIGRESSERLIREIRIKRHHLEEERIEVQGDKAIVRLRGRRDGNVNGVETETEVHIRIHFKKIDGRWVMTSVHIEVV” yielded a protease stability score of 1.75.

“DEEHKELRRAWEQLIHDIKTGDEESFKRLADPDVQVRVGDKVEHGREATERWLRQVDHIKHFEEKRIHIYDGRVELKGRVTGVINGRELNTEIDFEIVYIDGKLHRIRIHFR” yielded a protease stability score of 1.09.

As to “DEEHKEREDVAREIITLLLTGDEEIWLSMMDPHTRININGKYAIGRENIEEIIKDLLRRIPNIRIIMQDMKIQGDKVTIHGIHNVNGREHEWRVHIISVNGRIKSIEVRIH”, the protease stability score is 1.47.

“DEEHKETEDIAKYFWERFLTGDWKTFKEFADPHVKIDVDGVEHIGREEASKLMRDWDRRFKNVRHTERHHDVIDGKFELHGESNINGVHIKLDVRIVIVDGRLHSVHVEIDRR” had a protease stability score of 1.26.

“DEEHKEVREHIETSIQALRTGDWELLSKRMDPHVRVIVGDKHLHGREEAHKMLEEWFKRMGIDHFHIKSIEIQGDKTDVEGHMYFNGVSRDTRLYEVWVNGRLKSLTIEMR” yielded a protease stability score of 0.626.

“DEEHKFQHDISIFFMKLIETGDEDTLIDMADPNARSEINGKEVHGMEDAYKWWIDFLRQMGIKHLHVETFHVVNGQTKVHSRVHVGDKEFEVEIRLIIINGRLHEIEIIVRTR” returned a protease stability score of 1.21.

On to “DEEHKHLREILRLMIEWLRTGDWEKIERNADPTTKMDYGEFKTHGREEYYRALMILIRHLGVDHITLHDFTFIDGKIYLDLIIHVNGQHERVTLEMHFVDGVIKRHHVREK”, for which the protease stability score came to 0.566.

Sequence “DEEHKIIRDFADEFWHWHLTGNFEEIAKNMDPNVRYEIRIGDKVILHIGMEDVERYLREEIHKFKNLTEDLESKHVVGNKLHLDARLNWNGKTVDIHIEIVVVNGRFKTVTIHIR” showed a protease stability score of 1.36.

In turn, “DEEHKLAEHYLRIWIHALITGDFHKILHLMDPNVRNEVGDKEVHGREEWEKFLKRVKNVVIEHVELDHLLVVDGRVHIRVTLHMSYGDKTEDHDIHVLMHKVDGRWYIKSIHVK” gave a protease stability score of 2.43.

In the case of “DEEHKLQEDFLKALIRSILTGDWEFWKRLLDPHVRMNINGVYVHGRDEAANILIKDLERRGMEIKTITIEDRRHYDGVLEVKLRIQTTIDGQEHETSLEFHVKKYDGRWIIEHITVR”, the protease stability score amounted to 2.19.

“DEEHKTSYKALEQLIRVLRTGDERLMSELADPHVRMDFDGRRHHGRESMKREFLELGIDHVHLDRWNLIGNKVLSDGHMRFDGRSMRVEIIAYKVDGRWVLEEVRFE”: the protease stability score came out at 0.03.

For “DEEHNHFERLTRWFEHVWRTGNEEFFRELADPNARMRINGQEYVGREELVRTLHEWLKILGAKHHRKKDEEIQGEKVILIGEVDIDGRTLRHHVHFRIINGRLHSLEVEVK”, the protease stability score is 1.3.

“DEEHNLSEEAMRHFFETVRTGDEELIYRLLDPNARVQINGKEHHGREDVWEFLWRNYMRADHVEVKVHHVEVQGEKVIIDLRLHVTINGKDLEIRLVLIIHKYNGRWHITELRIL” registered a protease stability score of 0.555.

Regarding “DEEHQHSLARTLATALRTGDPEKMKDLADKDVKVVVGDKHIKGRKDAKKWAKDWRDRYDHAQVDDVNVQGENVRIVMNVEVDGHNVVVVMTAIIDGDQVKNVKVTARNEEQEKKMKK”, the protease stability score is 0.252.

On to “DEEHQSLRHIAEILLESWETGDFERVWKFADPHTRVDFNGREKHGMHHVHEMFHILGIDHIELRHMEVINGRINSDGHVEVNGQRHRMHLTIFVFDGRLTEVRFDYE”, for which the protease stability score amounted to 2.

Regarding “DEEHRDFKHLIKIFDDSVETGDEETFHKLLDPDVRIRVGDWQLVGREEARRVFQQIRIIIHSNRIHDVKVINGKIHADTHVDFRIEVGDKTVRERSRTIIYLDKVNGVWTIHSIEFK”, the protease stability score was found to be 1.08.

In the case of “DEEHRDLEHFMEIYEDALRTGDEKIIKFLLDPHVRFKQGNKQEHGWEAVYRYLHRFDVVKDVRFRIRSLEIQGDFLIVHYEVRYRGEINGQEHHVTIEYVIIVKKIDGKWLVHEVSIL”, the protease stability score was 1.62.

“DEEHRDSEEMTRKFLHNFITGNEHILEDLLDPHVRTDVDGREFIGWELAFKAFREFLERLGFDHIRHRDMKLHVVGNKVTSVITNNIQVGDKEHELRIILINRKIDGKWSVTEVRIHVK” came in with a protease stability score of 1.25.

As for “DEEHREAREAVEDDLRELITGNWDMLRRNLDPRMRLNIDGQDIHGRESVHKRWVELMEELGIDHLELHRVDVIDGRIHTDGHERVDGKHIKVLIVAVKINGRWIIKRLHVH”, the protease stability score was found to be 0.675.

As to “DEEHREMRDVLDELLEAFHTGDEHSLNRYADPHARHHVNGKEYHGRELMVKIWMDLGIDHVHLEEIHLQGEKLHMDTRVTVNGRTIKVTIIILKINGRWKLTHVEIK”, the protease stability score was 0.958.

“DEEHRHAEEILKDLQKALITGDEHNMMNLLDPHVRVDFDGVEIIGRELWVELFRTLKKELGITRFDIHLHTHDMKIFDGRVTLDTRLHLHYNGRTEERRVIIYVTKVNGRWHIESMEIK” registered a protease stability score of 1.82.

“DEEHRHAHWLLNVLTKAMITGDESLMEHLLDPNARLIQGEFELVGRERIIDWFHHIRTHEVRIHVEHFDVVNGKAIIFGHVTVDGTVNGQRREFRFDQTYFSSKIDGKWVIESLEME” showed a protease stability score of 1.3.

As to “DEEHRKLKKFVRESMEDHRTGDEDRRNELLDPNVRIEIGDKTFHGREDDKKWLEEFGVDHVEIRIRHIDIIGNKAIIDSELRIFVNGRILEFDTIIYAEKYDGRWVHHSVQVR”, the protease stability score came to 0.077.

Take “DEEHRLSHEIEKHLEDDLRTGDFHHFIKQVDPNTRVRYGDKRLHGMHAVIWTLEHLGIDVFHLTDSHTFENRVVVHVRLEQGDFTMSVEVHATKVNGRWIVTKINFHHS”: the protease stability score was 0.023.

“DEEHRSSHHAVEVQFRVLHTGDFHDLRRQLDPDVKFHIDGVNDHGREVFEERVRELGIKHLLIEDHHVEIQGEWAHLRMKGLMEINGKEIKLHIRYLLLKVNGRWSAHTVSIHLE” had a protease stability score of 1.36.

The sequence “DEEHRVIHNAVRILLEAIRTGDEETLRRLLDPHTRIEIGDKELHGWKDAIKFERDVWEILGIDHSEIRIKHVRIIGDKIEVEGEIINYVNGKEIVLDTNLIMRKIDGRWVFKSRKVN” gave a protease stability score of 1.23.

Consider “DEEHTDITRATEHLIDSMETGDEDRLQELFDPNTLMRINGRRHHGREDMREFIRELVEKVKNLKIEIDHIDVVGNKVRLEVTLRVNGQEISTHIIIVKVDGRWIVKRMHIN”, for which the protease stability score is 0.667.

In turn, “DEEIEEARHVFEEVIHNIQTGDEDAYETLMDPNVRLQVGEKKFHGRREVKEWLHEIRVRRYEIRPKDSDVIGEKVIVHGRVRIDGHYNGRDIDLEVQVHRIIVKINGRWFVHEVRIG” showed a protease stability score of 1.28.

“DEEIEMLTKLAELFIRLWLTGNEDILESMADPRVRLEINGREHHGRDIVRKIFEHDRHHMRLESIQLHDRRVYNGRADLHGTQYGEINGKRETYTVRLILVIINGRIETVKVIVE”: the protease stability score was 1.14.

“DEEKDEVREIAERIFHNLRTGDEEKLKHLIDPHVRFEYGDKEHHGWEEMVHFLREWRIHHIHIRDIKVYDGVAHVNGEVDGKFNGRRFRSDTWVIIVTINGRVKQISIQIN” returned a protease stability score of 1.33.
